Data published in US20230159643A1.

Target: Sortilin SORTECD_HIS (human) (UniProt Q99523)
Test: HTRF: displacement of PGRN binding to His-tagged Sortilin ECD

Chain of Sortilin SORTECD_HIS (human) (Q99523 other isoform, or with tags, fused parts or gaps limits assumed): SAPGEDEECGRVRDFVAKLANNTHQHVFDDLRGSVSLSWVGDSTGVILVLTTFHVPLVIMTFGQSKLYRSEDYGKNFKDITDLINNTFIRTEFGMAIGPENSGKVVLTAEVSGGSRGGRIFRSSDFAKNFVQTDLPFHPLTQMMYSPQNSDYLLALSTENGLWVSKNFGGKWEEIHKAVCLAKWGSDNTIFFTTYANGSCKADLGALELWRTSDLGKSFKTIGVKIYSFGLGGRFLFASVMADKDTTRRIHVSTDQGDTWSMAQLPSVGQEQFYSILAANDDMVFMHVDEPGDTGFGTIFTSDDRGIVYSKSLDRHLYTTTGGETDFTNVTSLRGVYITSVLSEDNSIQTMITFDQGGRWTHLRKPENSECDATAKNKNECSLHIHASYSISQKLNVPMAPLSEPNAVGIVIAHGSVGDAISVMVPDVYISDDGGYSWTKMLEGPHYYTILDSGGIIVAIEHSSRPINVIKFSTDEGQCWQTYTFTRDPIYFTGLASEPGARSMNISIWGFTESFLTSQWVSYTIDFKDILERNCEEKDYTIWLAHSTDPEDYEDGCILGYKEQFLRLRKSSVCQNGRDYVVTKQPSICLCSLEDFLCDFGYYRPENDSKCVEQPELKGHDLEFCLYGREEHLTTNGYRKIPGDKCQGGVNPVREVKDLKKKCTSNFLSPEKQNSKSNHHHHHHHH

IC50: > 1 µM
Substance: IgG1-b12 (antibody)
